# Measured values reported in IntAct's records for PubMed 14992724.
# B1: Meiosis-specific protein SPO11 (Saccharomyces cerevisiae), P23179 (parent)
# chain: MALEGLRKKYKTRQELVKALTPKRRSIHLNSNGHSNGTPCSNADVLAHIKHFLSLAANSLEQHQQPISIVFQNKKKKGDTSSPDIHTTLDFPLNGPHLCTHQFKLKRCAILLNLLKVVMEKLPLGKNTTVRDIFYSNVELFQRQANVVQWLDVIRFNFKLSPRKSLNIIPAQKGLVYSPFPIDIYDNILTCENEPKMQKQTIFPGKPCLIPFFQDDAVIKLGTTSMCNIVIVEKEAVFTKLVNNYHKLSTNTMLITGKGFPDFLTRLFLKKLEQYCSKLISDCSIFTDADPYGISIALNYTHSNERNAYICTMANYKGIRITQVLAQNNEVHNKSIQLLSLNQRDYSLAKNLIASLTANSWDIATSPLKNVIIECQREIFFQKKAEMNEIDARIFEYK
# partner: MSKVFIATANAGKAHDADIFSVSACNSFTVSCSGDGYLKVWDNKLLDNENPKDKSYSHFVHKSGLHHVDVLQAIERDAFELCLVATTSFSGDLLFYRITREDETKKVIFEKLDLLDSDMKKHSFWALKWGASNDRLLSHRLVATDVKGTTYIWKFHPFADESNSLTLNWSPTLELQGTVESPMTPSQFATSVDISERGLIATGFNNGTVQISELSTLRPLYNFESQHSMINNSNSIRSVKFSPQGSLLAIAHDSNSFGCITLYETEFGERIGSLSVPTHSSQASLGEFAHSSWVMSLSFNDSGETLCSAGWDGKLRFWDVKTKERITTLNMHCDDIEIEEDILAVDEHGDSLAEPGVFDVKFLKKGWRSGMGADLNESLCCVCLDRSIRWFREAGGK
# Variants of: B1
# Details: with ski8_yeast SKI8, Q02793
row,Variant,effect of a mutation on the interaction
1,Q376A,disrupting interaction strength
2,R377A;E378A,disrupting interaction strength
